Measured values as given in the supplement of paper PMC9170038.

Test system: MS2 coat protein
Experiment: apparent KD of MS2 coat protein; designed switch direction (-1 OFF switch, 1 ON switch): -1; higher = weaker reporter binding
Outline: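 Designed RNA switches with common flanks were made on Illumina chips by stalled E. coli RNA polymerase. Titration with SNAP-549-labelled MS2 coat protein doubled from 0.7 or 1.5 nM up to 3 µM. Apparent KD is each design's median over clusters after curve-fitting normalised fluorescence.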

[1] = Eterna round: R95, input ligand: FMN 200 uM
[2] = Eterna round: R95, input ligand: microRNA oligo, concentration not stated
[3] = Eterna round: R95, input ligand: none
[4] = input ligand: microRNA oligo, concentration not stated

Sequence	apparent KD of MS2 coat protein [1] [µM]	apparent KD of MS2 coat protein [2] [µM]	apparent KD of MS2 coat protein [3] [µM]	apparent KD of MS2 coat protein (input ligand: FMN 200 uM) [µM]	apparent KD of MS2 coat protein (input ligand: none) [µM]	apparent KD of MS2 coat protein [4] [µM]
AAUUGCUAGCCGAUCCUCCACAUGAGGAUCACCCAUGUGCUCGUCUUGUAAUGUGCUAUCACGAAAGUGAUAGUACA [Sensor v3, turn-off variant 1 (MOD of Eli's v1-59 v.4)] (puzzle: Sensor v3, turn-off variant 1)	0.413	0.0134	0.315	–	–	–
AAUUUAAUUAACAAGCUUUACAUGAGGAUCACCCAUGUGAUCAUGCUCGUCUUAGGUACAGGCUUCGGCCUGUACCA [Stov1/6-B1] (Eterna round: R97, puzzle: Sensor, turn-off variant 1)	–	–	–	0.0497	0.0555	–
AAUUUACAUGAGGAUCACCCAUGUCAGGAUAUGGUUUUAUUUUUUUUUUUUUUUGAUUCCAGAAGGGACAGUUA (puzzle: Exclusion 1)	–	0.0227	–	–	–	–
AAUUUACAUGAGGAUCACCCAUGUGAGGAUAUAUACAAAGAAGUGUUAUUAAGAAUGUAUAGAAGGCGCGUGAU [JR_Exc1_Sub039] (Eterna round: R97, puzzle: Exclusion 1)	–	–	–	0.0736	0.062	–
AAUUUACAUGAGGAUCACCCAUGUGAGGAUAUGGAUUCGCUGGCCGUAGCCAGUGGAUCCAGAAGGCGCAUGAU [JL-ex1-4.12] (Eterna round: R97, puzzle: Exclusion 1)	–	–	–	0.402	0.0948	–
AAUUUAUGAGGAUAUACAGUGUAAAACAUGAGGAUCACCCAUGUUCUUCAAUUAGUAUAUGUAGAAGGCAUAUGUA [JR_Ex5_Sub096] (Eterna round: R97, puzzle: Exclusion 5)	–	–	–	0.015	0.0137	–
AAUUUGCAAGCGAGAUCCCACAUGAGGAUCACCCAUGUGCUCGUCUUAUAAGGUACUGUGACAAAAGUCACGGUACC [Mat - Sensor, turn-off var - Eli Mod - D95] (Eterna round: R97, puzzle: Sensor, turn-off variant 1)	–	–	–	0.0166	0.0168	–
ACAAAGCUAGGAUAUGUGGCGGAUAACAUGAGGAUCACCCAUGUGAGCUCACAGAUCCGAGCAGAAGGAGCGAUUA [EX5 A.10] (Eterna round: R97, puzzle: Exclusion 5)	–	–	–	0.0153	0.0146	–
ACAAGAGCGGAAGGAUAUUGUACAUGAGGAUCACCCAUGUAAUAAAUGAGGAUCACGGAUGUAGUCAAGAAGGUCCGGAUAAGA [Ostracism 1 - Jieux - Exclusion NG 2] (Eterna round: R96, puzzle: Exclusion NG 2)	–	–	–	0.0477	0.0506	0.0608
ACAAGCAGAGAGUAAAUGGACAUGAGGAUCACCCAUGUGAGUCCGAAGAGAUAAGAUAUAUUGUCGGCUCGUCUUAU [AK-miRNA-r3-21] (Eterna round: R97, puzzle: Sensor, turn-off variant 1)	–	–	–	0.105	0.105	–
ACAAGCGAAAGGCUCGUCUUAUUUUUGUAGAGGUUCUAAACAUGAGGAUCACCCAUGUAGUGGUUAUGGUGGAGGUA [JR_SV3TOV2_Sub070] (puzzle: Sensor v3, turn-off variant 2)	0.0571	0.0644	0.0746	–	–	–
ACAAGCGUUAAGGAUAUACUGCCCUCAUUCUCGGUAGAAGGUAACACUUGAGGAUCACCCAAGUGAAAACCUGA [Erxeesis] (Eterna round: R97, puzzle: Exclusion 6)	–	–	–	0.0106	0.00967	–
ACAAGCGUUUUGCUCGUAAAGUAGGAACGCGAGAGCGGCACAUGAGGAUCACCCAUGUAGAGGCAGUUGGUGGAGAU [JR_SV3TOV2_Sub030] (puzzle: Sensor v3, turn-off variant 2)	0.0245	0.0242	0.0253	–	–	–
ACAAGCUAAAUCAUAUCUUACAUGAGGAUCACCCAUGUUUUUGCAAUUAUGUUUGGCCUCCUUUGUGCUCGUCUUAU [JR_STOV1_Sub051] (Eterna round: R97, puzzle: Sensor, turn-off variant 1)	–	–	–	0.0164	0.0167	–
ACAAGCUUCGAUAUCCUUAACAUGAGGAUCACCCAUGUUCGUCUUAUGAUGGUCUGAUCCCUGAGGAUCGGACCGUU [JL-sv1-2.09 Brourd Mod] (puzzle: Sensor v3, turn-off variant 1)	0.0409	0.0623	0.0404	–	–	–
ACAAGCUUUUAGAUUCUUAACAUGAGGAUCACCCAUGUGCUCGUCUUAUUGGCCGGCCGGCCGCCGGCCGGCCGGCC (Eterna round: R97, puzzle: Sensor, turn-off variant 1)	–	–	–	0.0436	0.0409	–

Sequence	apparent KD of MS2 coat protein [1] [µM]	apparent KD of MS2 coat protein [2] [µM]	apparent KD of MS2 coat protein [3] [µM]	apparent KD of MS2 coat protein (input ligand: FMN 200 uM) [µM]	apparent KD of MS2 coat protein (input ligand: none) [µM]	apparent KD of MS2 coat protein [4] [µM]
ACAAGCUUUUUGCUCGGGUACAUGAGGAUCACCCAUGUUUGUGUUUAUUGAGGUUGUGUUGUCGUGCGCUGCAGGUU [JR_SV3TOV1_Sub077] (puzzle: Sensor v3, turn-off variant 1)	0.0593	0.0387	0.0665	–	–	–
ACAAGCUUUUUGUUCGUCUUAUAAUAAUAAAUAAAUAUAACAUGAGGAUCACCCAUGUUGAGAAGACAACCUCAUGU [Sesor Array 24 - Jieux - Sensor v3, turn-off variant 2] (puzzle: Sensor v3, turn-off variant 2)	0.242	0.108	0.42	–	–	–
ACAAGUUUUUAGAUUCUUAACAUGAGGAUCACCCAUGUGCUCGUCUUGUUGGGCCCGGGCCCGCCGGGCCCGGGCCC (Eterna round: R97, puzzle: Sensor, turn-off variant 1)	–	–	–	0.0605	0.0722	–
ACAAGUUUUUAGAUUCUUAACAUGAGGAUCACCCAUGUGCUCGUCUUGUUUGUACUAUCACCGAAGGUGAUAGUACA (Eterna round: R97, puzzle: Sensor, turn-off variant 1)	–	–	–	0.0699	0.07	–
ACACCACAUGAGGAUCACCCAUGUAAGGAUAUAACGCAUCCGCGUAACUGCGGGCAAGUUAGAAGGUGUAUGGG [Eternabot (L2) Solution 91] (Eterna round: R97, puzzle: Exclusion 1)	–	–	–	0.0919	0.0496	–
ACACUGCGAGGAUAUACAUGAGGAUCACCCAUGUGUCGGCAGCCACGGUAGCACUAGUGUAGAAGGCGCAUUAG [EX3 #42] (Eterna round: R97, puzzle: Exclusion 3)	–	–	–	0.0411	0.0283	–
ACAGCUAAUCUGCUCGUCUACAUGAGGAUCACCCAUGUCAUGGUCCACCUAAGAGUCAGUUACCCAAGUGAUAUUCG [Eternabot (L1) Solution 29] (Eterna round: R97, puzzle: Sensor, turn-off variant 1)	–	–	–	0.204	0.224	–
ACAGUGUUAGGAUAUGUGUGAGUUAGUCUCGACUAGUCGAUGCAGAAGGAACAUGAGGAUCACCCAUGUAGAUC [EX4 #80] (Eterna round: R97, puzzle: Exclusion 4)	–	–	–	0.136	0.064	–
ACAUCACAGCUAGGAUAUAGAUGACAUGAGGAUCACCCAUGUUAUCCCAUGUUGACGAAAACCGACUAGAAGGAGCUACAGAUG [Ex NG2 #6] (Eterna round: R96, puzzle: Exclusion NG 2)	–	–	–	0.101	0.0637	0.0402
ACAUGACUGCUAGGAUAUAGAUGACAUGAGGAUCACCCAUGUUGUCUCAUGUUUAUGGAAACGGACUAGAAGGAGUAGUAUAUG [Ex NG2 #15] (Eterna round: R96, puzzle: Exclusion NG 2)	–	–	–	0.0206	0.0213	0.0145
ACAUGAGGAUCACCCAUGUAAACAUGAUGGCUGAUGUAGAGCUAGGAUAUGAGUGGCUUUCUAUCUCAGAAGGAGCUUGACUGG [Deportation 43 - Jieux - Exclusion NG 3] (Eterna round: R96, puzzle: Exclusion NG 3)	–	–	–	0.0308	0.0357	0.0228
ACAUGAGGAUCACCCAUGUAAUCAUGAUGGCUGAUGUAGAGCUAGGAUAUGAGUGGCUUUCUAUCUCAGAAGGAGCAAGACUGG [Deportation 40 - Jieux - Exclusion NG 3] (Eterna round: R96, puzzle: Exclusion NG 3)	–	–	–	0.0441	0.0368	0.0316
ACAUGAGGAUCACCCAUGUAAUGAUGGGUACUAUAUUAUUCGUAGGAUAUCGUUGUUAGUUUGUUCGAGAAGGACGUUUGCCUU [JR_ExcNG3_Sub055] (Eterna round: R96, puzzle: Exclusion NG 3)	–	–	–	–	–	0.824
ACAUGAGGAUCACCCAUGUACAGGGUUUAGUUUCAUCGUUUGAAGGAUAUACUCCGUUAGUUGUCGUAGAAGGUCACAGUUUGG [JR_ExcNG3_Sub007] (Eterna round: R96, puzzle: Exclusion NG 3)	–	–	–	0.179	0.178	0.128
ACAUGAGGAUCACCCAUGUACUGGGUUUAGUUUCAUCGUUUGAAGGAUAUACUCCGUUAGUUGUCGUAGAAGGUCACAGUUUGG [JR_ExcNG3_Sub008] (Eterna round: R96, puzzle: Exclusion NG 3)	–	–	–	0.457	0.517	0.407
ACAUGAGGAUCACCCAUGUCCGGCUGGUCUGUUCCGGCUGUCGAGGAUAUAGUCCGGUGUUCGCGCUAGAAGGCGAGGGCUGGA [Aenatbe mod 48] (Eterna round: R96, puzzle: Exclusion NG 3)	–	–	–	0.088	0.0436	0.0299
